Consider 4 variants from IntAct's records for PubMed 19357306.

Sequences and labels used below:
B1: Aurora kinase A (Homo sapiens), O14965 (parent)
chain: MDRSKENCISGPVKATAPVGGPKRVLVTQQFPCQNPLPVNSGQAQRVLCPSNSSQRIPLQAQKLVSSHKPVQNQKQKQLQATSVPHPVSRPLNNTQKSKQPLPSAPENNPEEELASKQKNEESKKRQWALEDFEIGRPLGKGKFGNVYLAREKQSKFILALKVLFKAQLEKAGVEHQLRREVEIQSHLRHPNILRLYGYFHDATRVYLILEYAPLGTVYRELQKLSKFDEQRTATYITELANALSYCHSKRVIHRDIKPENLLLGSAGELKIADFGWSVHAPSSRRTTLCGTLDYLPPEMIEGRMHDEKVDLWSLGVLCYEFLVGKPPFEANTYQETYKRISRVEFTFPDFVTEGARDLISRLLKHNPSQRPMLREVLEHPWITANSSKPSNCQNKESASKQS

The first assay covers variants of B1. The settings on record: with ince_human INCENP.
Consider G198L, for which the “effect of a mutation on the interaction” value is given as “disrupting interaction strength”. As for G198A, the “effect of a mutation on the interaction” value was “disrupting interaction strength”. On the same count and under the same terms, under G198V stands “disrupting interaction strength”.

In a further assay the parent is B1. The settings on record: with tpx2_human TPX2, Q9ULW0.
Sequence of tpx2_human TPX2, Q9ULW0 (Q9ULW0 whole entry): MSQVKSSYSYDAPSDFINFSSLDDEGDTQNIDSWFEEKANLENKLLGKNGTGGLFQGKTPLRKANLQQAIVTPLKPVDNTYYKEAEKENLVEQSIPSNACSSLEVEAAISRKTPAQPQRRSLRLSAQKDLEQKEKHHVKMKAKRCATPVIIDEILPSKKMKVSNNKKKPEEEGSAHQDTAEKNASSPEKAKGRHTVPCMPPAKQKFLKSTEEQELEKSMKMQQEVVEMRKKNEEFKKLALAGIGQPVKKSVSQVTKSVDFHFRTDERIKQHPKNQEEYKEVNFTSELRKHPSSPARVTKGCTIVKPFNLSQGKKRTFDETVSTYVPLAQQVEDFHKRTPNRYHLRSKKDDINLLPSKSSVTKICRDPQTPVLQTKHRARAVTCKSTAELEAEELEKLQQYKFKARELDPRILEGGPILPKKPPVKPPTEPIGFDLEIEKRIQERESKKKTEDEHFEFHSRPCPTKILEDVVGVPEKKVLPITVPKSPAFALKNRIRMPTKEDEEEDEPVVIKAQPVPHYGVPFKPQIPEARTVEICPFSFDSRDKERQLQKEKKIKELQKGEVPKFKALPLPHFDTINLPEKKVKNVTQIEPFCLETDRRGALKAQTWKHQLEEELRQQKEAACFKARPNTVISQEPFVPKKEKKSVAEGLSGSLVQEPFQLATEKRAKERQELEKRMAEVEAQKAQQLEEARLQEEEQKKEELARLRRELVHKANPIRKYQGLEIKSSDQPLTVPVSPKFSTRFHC
With G198N, the “effect of a mutation on the interaction” value is “decreasing interaction”.
